In patent US7482133B2, “Catalytic domains of β(1,4)-galactosyltransferase I having altered donor and acceptor specificities, domains that promote in vitro protein folding, and methods for their use” (The United States of America as represented by the …, priority 2003, dated 2009):

What was measured:
[1] = Stability of the folded recombinant proteins; assay type: physicochemical; details: after folding and purification from inclusion bodies
Description: Mutation of the stem region of bovine β4Gal-T1 to inhibit proteolysis: The wild-type bovine SRCDβ4Gal-T1, which has Ser at position 96, was expressed in E. coli. […] The protein was electroblotted to polyvinylidene difluoride membrane, and the N-terminal sequence of the cleaved fragment was determined by Edman degradation at the Protein Chemistry Laboratory, NCI-Frederick. The N-terminal sequence of the fragment was determined as SRAPSNLD (SEQ ID NO: 21). This corresponds to the cleavage at Ser96 within the sequence region KPR^96SRAPSNLD (SEQ ID NO: 22). To prevent this proteolytic digestion within the stem region, we now constructed a mutant substituting Ala in place of Ser96. This prevented the cleavage within the stem region of bovine β4Gal-T1 keeping the recombinant protein intact for a long period of time. Even though, the experimental results described in this study are with the mutant bovine S96A-SRCDβ4Gal-T1 (FIG. 3A), for the sake of convenience in abbreviation this protein is simply referred to as bovine SRCDβ4Gal-T1.

[2] = β4Gal-T1 enzyme assay of in vitro folded CD and SRCD proteins; assay type: biochemical; details: folded under condition I
Description: β4Gal-T1 Enzyme Assays: The in vitro assay for β4Gal-T1 enzyme activity was performed as described (Boeggeman et al., Glycobiology, 12:395-407 (2002)). The ^3H-labeled-UDP-Gal was used as sugar donor and GlcNAc as the sugar acceptor. A reaction without GlcNAc was used as a control.
Binding of recombinant proteins to UDP-affinity column: UDP-agarose was used to bind the active proteins at 4° C. Columns containing 1 ml bed volume of UDP-agarose were pre-equilibrated with 10 ml of 25 mM cacodylic buffer, pH 7.6, containing 25 mM MnCl2. The renatured protein solutions (0.5 mg) were adjusted to the pre-equilibration buffer conditions and applied to the columns. After loading the sample, the pass-through was re-cycled. It was then analyzed for the unbound protein by SDS-PAGE. The columns were washed 3× with 1-ml portions of equilibration buffer. The bound protein was eluted with the elution buffer consisting of 25 mM cacodylic buffer, pH 7.6, 25 mM EDTA and 1 M NaCl. Fractions of 0.5 ml were collected from the columns, and aliquots were analysed by SDS-PAGE. For enzymatic analysis the appropriate fractions were pooled and dialysed against 50 mM Tris-HCl pH 8.0 at 4° C. […]

B1: human SRCDβ4Gal-T1: human stem region/catalytic domain β4Gal-T1, not mutated (protein, listed as Homo sapiens)
chain: RDLSRLPQLVGVSTPLQGGSNSAAAIGQSSGDLRTGGARPPPPLGASSQPRPGGDSSPVVDSGPGPASNLTSVPVPHTTALSLPACPEESPLLVGPMLIEFNMPVDLELVAKQ
In the case of B1, the “stability against cleavage within the stem region” value [1] is reported as “only after long periods of time” and the “specific activity after elution from UDP-agarose versus before loading” value [2] is reported as 6 fold.
